For 1 substance, fold decrease in EC50 of NK cell-mediated ADCC (LDH release, 4 h, 10:1) against CAL51, compared with IgG1-GM and IgG1-DE, fold decrease in EC50 of NK cell-mediated ADCC (LDH release, 4 h, 10:1) against CAL51, compared with IgG1-WT and fold greater KD than IgG1-WT (so in the source); stronger binding is meant results are on record in PMC12616241.

Test [1] has as its target FcγRIIIa on NK cells (human (endogenous in NK cells)) (UniProt P08637).
The target is the same in test [2]. Kind of test: flow cytometry on cells; purified human NK cells incubated on ice with titrated monomeric antibody (0.03–10 µg/mL), detected with anti-F(ab′)2-Alexa Fluor 647. Background: A flow cytometer gives signals particle by particle.

Sequence of FcγRIIIa on NK cells (human (endogenous in NK cells)) (P08637 17-208): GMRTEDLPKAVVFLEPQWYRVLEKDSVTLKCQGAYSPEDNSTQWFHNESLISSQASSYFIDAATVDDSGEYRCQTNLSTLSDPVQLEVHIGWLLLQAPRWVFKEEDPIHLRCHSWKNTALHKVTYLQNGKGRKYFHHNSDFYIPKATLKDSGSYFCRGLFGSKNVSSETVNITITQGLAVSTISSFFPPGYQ

In test [1], “anti-FRα IgG1-DE/GM (MOv18 variable regions, human IgG1 with S239D and I332E, glycomodified) (antibody)” showed a fold decrease in EC50 of NK cell-mediated ADCC (LDH release, 4 h, 10:1) against CAL51, compared with IgG1-GM and IgG1-DE of 100 fold; a fold decrease in EC50 of NK cell-mediated ADCC (LDH release, 4 h, 10:1) against CAL51, compared with IgG1-WT of 4000 fold. In addition, in test [2], the fold greater KD than IgG1-WT (so in the source); stronger binding is meant amounted to 100 fold.
